Experimental findings from the RNAGym collection of RNA variant scans (doi:10.1073/pnas.2313332121) are described below.

The labels stand for the following.
B1: TPR t1 (parent)
chain: GACCAAUCUGCCCUCAGAGCUCGAGAACAUCUUCGGAUGCAGAGGAGGCAGGCUUCGGUGGCGCGAUAGCGCCAACGUCCUCAACCUCCAAUGCAUCCCACCACAUGAUGAUGCCUGAAGAGCCUUGGUUUUUUG

Variants of B1 are the subject of this series. In words: polymerase ribozyme fitness, log enrichment relative to wild type (log ratio); higher = more active; in vitro selection for triplet polymerase activity. The method, boiled down:
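Libraries of mutants in each subunit of a heterodimeric triplet polymerase ribozyme were generated by PCR and transcribed. In triplicate, each went through one in vitro selection round: annealing with biotinylated primer, partner subunit and triplets; frozen incubation at −7 °C; gel excision of extended constructs; streptavidin-bead capture; RT-PCR. Fitness, taken from Illumina sequencing of input and output libraries, is the logarithm of a genotype's enrichment over wild-type enrichment, averaged across replicates with inverse-variance weights. The logarithm is base 2, and genotypes needed ≥10 input reads and ≥1 read per output to be kept.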
On to GACCAAUCUUCCCUCAGAGCUCGAGAACAUCUUCGGAUGCAGAGGACGCAAGGUUUGGUGGCGCGAUAGCGCCAACGUCCUCAACCUCCAAUGCAUCCCACCACAUGAUGAUGCCUGAAGAGCCUUGGUUUUUUG, for which the “polymerase ribozyme fitness (log ratio)” value was -2.84. For the variant GACCAAUCUGCCCUCAGAGUUCGAGAACAUCUUCGGAUGCAGAGGAGGCAGGCUUCGGUGGCGCGAUAGCGCCAACGUCCUCAACCUCCAAUGCAUGCCACCACAUGAUGAUGCCUGAAGAGCCUUGGUUUUUUG, the “polymerase ribozyme fitness (log ratio)” value was -5.61. Turning to GACCAAUCUGCCCUCAGAGCUCGAGAACAUCUUCGGAUGCAGAGGAGGCAGGCUUCGGUGGCGUGAUAGCGCCAACGUCCUCAACCUCCAAUGCAUCCCACCACAUGAUGAUGCCUGAAGCGCCUUGGUUUUUUG, the “polymerase ribozyme fitness (log ratio)” value was determined as 1.93. For GACCAAUCUGCCCUCAGAGCUCGAGAACAUCUUCGGAUGCAGAGGAGGCAGGCUUCGGUGGCGCGAUAGCGCCAACGUCCUCAACCUCCAAUGCAUCCCAGCACAUGAUGAUGCCUGAAGAGCCUUAGUUUUUUG, the “polymerase ribozyme fitness (log ratio)” value was -2.28. Regarding GACCAAUCUGCCCUCAGAGCUCGAGAACAUCUUCGGAUGCAGAGGAGGCAGGCUUCGGUGGCACGAUAGCGCCAACGUCCUCAACCUCCAAUGCAUCCCACCACAAGAUGAUGCCUGAAGAGCCUUGGUUUUGUG, the “polymerase ribozyme fitness (log ratio)” value is -1.47. As to GACCAAUCUGCCCUCAGAGCUCGAGAACAUCUUCGGAUGCAGAGGAGGCAGGCUUCGGUUGCGCGAUAGCGCCAACGUCCUCAACCUCCAAUGCAUCCCACCACAGGAUGAUGCCUGAAGAGCCUUGGUUUUUUG, the “polymerase ribozyme fitness (log ratio)” value is -1.17. As to GACCAAUCUGCCCUCAGAGCUAGAGAACAUCUUCGGAUGAAGAGGAGGCAGGCUUCGGUGGCGCGAUAACGCCAACGUCCUCAACUUCCAAUGCAUGCGACCACAUGAUGAUGCCUGAAGAGCCAUGGUUUUUUG, the “polymerase ribozyme fitness (log ratio)” value was -6.51. In the case of GACCAAUCUGCCCUAAGAGCUCGAGAACAUCUUCGGAUGUAGAGGAGGCAGGCUUCGGUGGCGCGAUAGCGCCAACGUCCUCAACCUCCAAUGCAUCCCACCACAUGAUGAUGCUUGAAGAGCCUUGGUUAUUUG, the “polymerase ribozyme fitness (log ratio)” value was -1.85. For GACCAAUCUGCCCUCAGAGCUCGAGAACAUCUUCGGAUGCAGAGGAGGCAGGCUUGGGUGGCGCGAUAGCGCCAACGUCCUCAACCUCCAUUGCAUCCCACCACAUGAUGCUGCCUGAAGAGCCUUGGUUUUUUG the value was -2.73; for GACCAAUCUGCCCUCACAGCUCGAGAACAUCUUCGGAUGCAGAGGAGGCAGGCUUCGGUGGCGCGAUAUCGCCAACGUCCUCAACCUCCAAUGCAUCCCACCACAUGAUGAUGCCUGAAGAACCUUGGUUUUUUG, -2.46; for GACCAAUCUGCCCUCAGAGCACGAGAACAUCUUCGGAUGCAGUGGAGGCAGGCUUCGGUGACGCGAUAGCGCUAACGUCCUCAACCUCCGAUGCAUCCCACCACAUGAUGAUGCCUGAAGAGCCUUGGUUUUUUG, -3.13. Consider GACCAAUCUUCCCUCAGAGCUCGAGAACAUCUUCGGAUGCAGAGGAGGCAAGCUUCGGUGUCGCGAUAGCGCCAACGUCCUCAACCUCCAAUGCAUCCCCCCACAUGAUGAUACCUGAAAAGCCUUGGUUUUUUG, for which the “polymerase ribozyme fitness (log ratio)” value is -4.29. As to GACCAAUCUACCCUCAGAGCUCGAGAACAUCUUCGGAUGCAGAGGAGGCAGUCUUCGGUGGCGCGAUAGCGGCAACGUCCUCAACCUCCAAUGCAUCCUACCACAUGAUGAUGCCUGAAGAGCCUUGGUUUUUUG, the “polymerase ribozyme fitness (log ratio)” value is -4.47. GACCAAUCUGCCUUCAGAGCUCGAGAACAUCUUCGGAUGCAGAGGAGGCAGGCUUCGGUGGCGCGAUAGCGCCAACGUCCUCAACCUCCAAUGCAUCCCAACACAUGAUGAUGCCUGAAGAGCCUUGGUUUUUUG: the “polymerase ribozyme fitness (log ratio)” value is -0.869. Consider GACCAAUGUGCCCUCAGAGCUCGAGAACAUCUUCGGAUGCAGAGGAGGCAGGCUUCGGUGGCGCGAUAGCGCCAACGUCCUCAACCUCCAAUGCAUCCCACCACAUGAUGAUGCCUGAAGAACCUUGGUUUUUUG, for which the “polymerase ribozyme fitness (log ratio)” value was 0.556. With GACCAAUGUGCCGUCAGAGCUCGAGAACAUCUUCGAAUGCAGAGGAGGCAGGCUUCGGUGGCGCGAUAGCGUCAACGACCUCAACCUCCAAUGCAUCCCACCACAUGAUGCUGCCUGAAGAGCCUUGGUUUUUUG the figure was 0.397; with GACCAAUCUGCCCUCAGAGCUCGAGAACAUCUUCGGAUGCAGAGGAGGCAGGCUUCGGUGGCGCGAUGGCACCAACGUCCUCAACCUCCAAUGCCUCCCACCACAUGAUGAUGCCUGAAGAGCCUUGGUUUUUUG, -6.02; with GACCAAUCUGCCCUCAGAGCUCGAGAACAUCUUCGGAUGCAGAGGAGGCAUGCUUCGGUGGCGCGAUAGCACCAACGUCCUCAAACUCCAAUGCAUCCCAUCACAUGAUGAUGCCUGAAGAGCCUUGGUUUUUUG, -7.55. With GACCAAUCUGCCCUCAGAGCUCGAGAACAUCUUCGGAUGCAGAGAAGUCAGGCUUCGGUGGCGCGAUAGCGCCAACGUCCUCAACCUCCAAUGCAUCCCACCACAUGAUGAUGCCUGAAGAGCCUUGGUUUUUUG the figure was -1.58; with GACCAAUCUGCCCUCAGAGCUCGAGAACAUCUUCGGAUGCAGACGAGGCAGGCUUCGGUGGCGCGAUAGAGCCAACGUCCUCAACCUCCAAUGCAACCCACCACAUGAUGAUGCCUGAAGAGCCUUGGUUUUUUG, -3.81; with GACCAAUCUGCCCUCAGAGCUCGAGAACAUCUUCGGAUGCAGAGGAGGCAGGCUUCGGAGGCGCGAUAGCGCCAACGUCCUCGACCUCCAAUGCAUCCCACCACAUGAUGAUGCCUGAAGAGCCUUGGUUUUUUG, -0.546. For the variant GACCAAUCUGCCCUCAUAGCUCGAGAACAUCUUCGGAUGCAGCGGAGGCAGGCUUCGGGGGGGCGAUAGCGCCAGCGUCCUCAACCUCCAAUGCAUCCCACCACAUGAUGAUGCUUGAAGAGCGUUGGUUUUUUG, the “polymerase ribozyme fitness (log ratio)” value was -5.23. For the variant GACCAAUCUGCCCUCAGAGCUCGAGAACAUCUUCGGAUGCAGAGGAGGCAUGCUUCGUUGGCACGAUAGCGCCAACGUCCUCAACCUCCAAUGCAUCCCACCACAUGAUGAUGCCUCAAGAGCCUUGGUUUUUUG, the “polymerase ribozyme fitness (log ratio)” value was -6.73. For GACCAAUCAGCCCUCAGAGCUCGAGAACAUCUUCGGAUGCAGAGGAGGCAGGCUUCGGUGGCGCGAUAGCUCCAACGUCCUCAACCUCCAAUGAAUCCCACCACAUGAUGAUGCCUGAAGAGGCUUGGUUUUUUG the value was 0.355; for GACCAAUCAGCCCUCAGAGCUCGAGAACAUCUUCGGAUGCAGAGGAGGCAGGCUUCGGUGGCGCGAUACCGCCAACGUCCUCAACCUCCAAUGCAUCCCACCACAUGAUGAUGCCUGAAGAGCCUUGGUUUUUUG, -0.589. On to GACCAAUCUGACGUCAGAGCUCGAGAACAUCUUCGUAUGCAGAGGAGGCAGGCUUCGGUGGCGCGAUAGCGCAAACGUCCUCAACCUCCAAUGCAUCCCACCACAUGAUGAUGCCUGAAGAGCCUUGGUUUUUUG, for which the “polymerase ribozyme fitness (log ratio)” value is -4.01. Regarding GACCAAUCUGCCCUCAGAGCUCGAGAACAUCUUCGGAUGCAGAGGAGGCAGGCUUCGGUGGCGCGAUAACGCCAACGUCCUCAACCUCCAAUGCAUCCCACCAUAUGAUGAUGCCUGAAGAGCCUUAGAUUUUUG, the “polymerase ribozyme fitness (log ratio)” value is -2.62. Consider GACCAAUCUGCCCUCAGAGCUCGAGAACAUCUUCGGAUGCAGAGGAGGCAGGCUUCGGUGACGCGAUAGCGCCAACGUUCUCAACCUCCAAUGCAUCCCACCAAAUGAUGAUGCCUGAAGAGCAUUGGUUUUUUG, for which the “polymerase ribozyme fitness (log ratio)” value amounted to 0.783.

With GACCAAUCUGCCCUCAGAGCUCGAGAACAUCUUCGGAUGCAGAGGAGGCAGGCUUCGGUGGUGCGAUAGCGCCAACGUCCUCACCCUCCAAUGCAUCCCACCACAUGAUGAUGCCUCAAGAGCAUUGGUUUUUUG, the “polymerase ribozyme fitness (log ratio)” value was -2.09. With GACCAAUCUGCCCUCAGAGCUCGAGAACAUCUUCGGAUGCAGAGGAGGCAGGCUUCGGUGGCGCGAUAGCGCCAACGUCCUCAAGCUCCAAUGCAUCCCACCACAAGAUGAUGCCUGAAGAGCCUUGGUUUUUUG, the “polymerase ribozyme fitness (log ratio)” value was -1.05. Consider GACCAAUCUACCCUCAGAGCUUGAGAACAUCUUCGAAUGCAGCGGAGGGAGGCUUCGGUGGCGCGAUAGCGCCAACGUCCUCAACCUCCAAAGCAUCACACCACAUGAUGAUGCCUGAACAGCCGUGGUUUUUUG, for which the “polymerase ribozyme fitness (log ratio)” value was -7.92. With GACCAAUCUCCCCUCAGAGCUCGAGAACAUCUUCGGAUGCAGAGGAGGCAGGCUUCGGUGGCUCGAUAGCGCCAACGUCCUCAACCUCCAAUGCAUCCCACCACAUGAUGAUGCCUGAAGAGCCUUGGUUUUUUG the figure was -2.32; with GACCAAUCUGCCCUCAGAGCUCGAGAACAUCUUCGGAUGCAGACGAGGCAGGCUUCGGUGGCGCGAUAGCGCCAACGUCCUCAACCUCUAAUGCAUCCCACCACAUGAUGAUGCCUGAAGAGCCUUGGUUUUUUG, -1.15.

In the case of GACCAAUCUGCGCUCAGAGCUCGAGAACAUCUUCGGAUGCAAAGGAGGCAGGCUUCGGUGGCGCGAUAGCGCCAACGUCCUCAACCUCCAAUGCAUCCCACCACAUGAUGAUGCCUGAAGAGCCUUGGUUUUUUG, the “polymerase ribozyme fitness (log ratio)” value was -1.36. As for GACCAAACUGCCCUCAUAGCUCGAGAACAUCUUCGGAUGCAGAGGAGGCAGGCUUCGGUGGCGCGAUAGCGCCAACGUCCUCAACCUCCAAUGCAUCCCACCACAUGAUGAUGCCUAGAGAGCCUUGGUUUUUUG, the “polymerase ribozyme fitness (log ratio)” value is -2.58. Turning to GACCAAUCUGCCCUCAGAGCUCGAGAACAUCUUCGGAUCCAGAGGAGGCAGGCUUCGGUGGCGCGUUAGCGCCAGCGUCCUCAACCUGCAAUGCAUCCCACCACAUGAUGAUGCCUGAAGAGUCUUGGUUUUUUG, the “polymerase ribozyme fitness (log ratio)” value is -3.46.

On to GACCAAUCUGACCUCAGAGCUCGAGAACAUCUUCGGAUGCAGAGGAGGCAGGCUUCGGUGGCGCGAUAGCGCCAACGUCCUCAACCUCCAAUGCAUCCCACCACAUGAUGAUGCCUGAAGCGCCUUGGUUUUUUG, for which the “polymerase ribozyme fitness (log ratio)” value was found to be 1.02. For the variant GACAAAUCUGCCCUCAGAGCUCGAGAACAUCUUCGGAUGCAGAGGAGGCAGGCUUCGGUGGCGCGAUAGCGCCAACGUCCUCAACCUCCAAUGCAUCCCACCACAUGAUGAUGUCUGAAGAGCAUUGGUUUUUUG, the “polymerase ribozyme fitness (log ratio)” value is -2.3. As for GACCAAUCUUCCCUCAGAGCUCGAGAACAUCUUCGGAUGCAGAGGAGGCAGGCUUCGGUGGCGCGAUAGCGCCAACAUCCUCAACCUCCAAUGCAUCCCACCACAGGAUGAUGCCUGAAGAGCCUUGGUUUUUUG, the “polymerase ribozyme fitness (log ratio)” value is -2.38. Consider GACCAAUCUGCCCUCAGAGCUCGAGAACAUCUUCGGAUGCAGAGGAGGCAGGCUUCGGUGGCCCGAUAGCGCCAACGUCCUCAACCUCCAAUGCAUCCCACCACAUGAUGAUGCCUGAAGAGCCUAGUUUUUAUG, for which the “polymerase ribozyme fitness (log ratio)” value was -3.25.

As for GACCUAUCUGCCCUCAGAGCUCGAGAACAUCUUCGUAUGCAGAGGAGGCAGGCUUCGGUGGCGCGAUAGCGCCAACGUCCUCAACCUCCAAUGCAUCCCACCACAUGAUGAUGCCUGAAGAGCCUUGGUUUUUUG, the “polymerase ribozyme fitness (log ratio)” value is -1.3. Take GUCCAAUCUGCACUCAGAGCUCGAGAACAUCUUCGGAUGCAGAGGAGGCAGGCUGCGGUGACGCGAUAGCGCCAACGUCCUCAACCUCCAAUGCAUCCCACAAUAUGAUGAUGCCUGAAGAGCCUUGGUUUUUUG: the “polymerase ribozyme fitness (log ratio)” value is -4.56.
